Data published in PMC8602850, “SARS-CoV-2 Exacerbates COVID-19 Pathology Through Activation of the Complement and Kinin Systems” (Frontiers in Immunology, 2021).

B1: gC1qR, wild type, mature recombinant (receptor for the globular heads of C1q) (receptor, UniProt Q07021 74-282, looked up)
chain: LHTDGDKAFVDFLSDEIKEERKIQKHKTLPKMSGGWELELNGTEAKLVRKVAGEKITVTFNINNSIPPTFDGEEEPSQGQKVEEQEPELTSTPNFVVEVIKNDDGKKALVLDCHYPEDEVGQEDEAESDIFSIREVSFQSTGESEWKDTNYTLNTDSLDWALYDHLMDFLADRGVDNTFADELVELSTALEHQEYITFLEDLKSFVKSQ
modifications: biotin (biotinylated gC1qR in the ELISA; not said for the SPR surface)
notes: also called gC1qR-WT; biotinylated gC1qR

Tests used:
[1] = target: B1; experiment: SPR; gC1qR-WT or gC1qR-ΔΔ immobilised; two-fold dilution series of analyte injected; reference-corrected sensorgrams fit to kinetic models; apparent KD; details: both partners purified
[2] = target: T1, SARS-CoV-2 nucleocapsid (N) protein, recombinant (SARS-CoV-2, UniProt P0DTC9 1-419); experiment: as above; details: both partners purified
T1 construct: also called Nucleocapsid protein

| Binder | Kd [1] [µM] | Kd [2] [µM] |
| --- | --- | --- |
| HKHGHGHGKHKNKGKKNGKH [synthetic peptide corresponding to the gC1qR-binding region from HK] | 2000 |  |
| B1 |  | 6 |
